Measured values as given in paper PMC4505445 (The Journal of Biological Chemistry, 2015).

Molecular target: biotinylated Aβ oligomers (from bAβ1–42) (UniProt P05067 672-713)
Assay: ELISA
Settings: both partners purified

B1: wild-type human prion protein (amino acids 23–231), unlabeled (domain or fragment)
chain: not shown
binding result: binds
